The results in this text go back to patent US20110184152A1 (published 2011).

The target in assay [1] is T1, human serum albumin (human, UniProt P02768 25-609).
T1 construct: also called HSA; HumanSA
The assay can be described thus: SPR (Biacore), running buffer pH6.0; pH 6. A general note: In SPR one partner is held on a chip, and binding of the other changes the refractive index at the surface.

Assay [2] has as its target T1, human serum albumin. The assay can be described thus: SPR (Biacore), running buffer pH5.0; pH 5.
Text: (§1) Covalent immobilisation of the capture antibody was achieved by standard amine coupling chemistry.
Assay [3] addresses T1, human serum albumin. The assay can be described thus: SPR (Biacore), running buffer pH5.5; pH 5.5.
Text: as §1
The target in assay [4] is T2, mouse serum albumin (mouse, UniProt P07724 25-608).
T2 construct: also called MSA; MurineSA
The assay can be described thus: SPR (Biacore), purified construct.

In assay [5] the target is T1, human serum albumin. The assay can be described thus: SPR (Biacore), purified construct.
For assay [6], the target named is T1, human serum albumin. The assay can be described thus: SPR (Biacore), construct captured from HEK293 supernatant, HSA injected.
The target in assay [7] is T2, mouse serum albumin. The assay can be described thus: SPR (Biacore), purified construct. This is another data set of the same source.
Assay [8] addresses T1, human serum albumin. The assay can be described thus: SPR (Biacore), purified construct. This is another data set of the same source.
In assay [9] the target is T1, human serum albumin. The assay can be described thus: SPR (Biacore), running buffer pH7.0; pH 7.
Text: as §1
Assay [10] concerns the target T2, mouse serum albumin. The assay can be described thus: affinity as humanised IgG; method not named.
Another assay has as its target T3, rat serum albumin (rat, UniProt P02770 25-608).
T3 construct: also called RatSA
The assay can be described thus: affinity as humanised IgG; method not named.

For assay [11], the target named is T1, human serum albumin. The assay can be described thus: SPR (BIAcore).
Assay [12] concerns the target T1, human serum albumin. The assay can be described thus: affinity as humanised IgG; method not named.
For the next assay, the target named is T4, IL-1β.
T4 construct: also called IL-1 beta
The assay can be described thus: SPR (Biacore), construct captured, IL-1β injected.

Assay [13] deals with T1, human serum albumin. The assay can be described thus: SPR (Biacore), construct captured, HSA injected.

Experimental for IL-1β: as §1
Kinetic parameters were determined by simultaneous global-fitting of the resulting sensorgrams to a standard 1:1 binding model using Biacore T100 Evaluation software.

B1: FabB-didAb, -dAbL1 (CK-G4Sx2) & dAbH1 (CH1-G4Sx2) (bispecific antibody)
heavy: ASTKGPSVFPLAPSSKSTSGGTAALGCLVKDYFPEPVTVSWNSGALTSGVHTFPAVLQSSGLYSLSSVVTVPSSSLGTQTYICNVNHKPSNTKVDKKVEPKSCGGGGSGGGGSEVQLLESGGGLVQPGGSLRLSCAVSGIDLSNYAINWVRQAPGKGLEWIGIIWASGTTFYATWAKGRFTISRDSTTVYLQMNSLRAEDTAVYYCARTVPGYSTAPYFDLWGQGTLVTVSS
light: RTVAAPSVFIFPPSDEQLKSGTASVVCLLNNFYPREAKVQWKVDNALQSGNSQESVTEQDSKDSTYSLSSTLTLSKADYEKHKVYACEVTHQGLSSPVTKSFNRGECGGGGSGGGGSDIVMTQSPSSVSASVGDRVTITCQSSPSVWSNFLSWYQQKPGKAPKLLIYEASKLTSGVPSRFKGSGSGTDFTLTISSLQPEDFATYYCGGGYSSISDTTFGGGTKVEIK
notes: also called FabB-645Fv (G4Sx2); FabB-645Fv (2xG4S)
In general, Kd refers to the constant that tells how readily two partners part at equilibrium. Broadly, the koff is the rate constant with which the complex falls apart. Low readings indicate a long-lived complex, high ones a short-lived complex. Usually kon stands for the rate constant with which the complex forms. Read a low kon as slower complex formation. In the case of B1, the Kd with human serum albumin [1] stood at 12.5 nM; with human serum albumin [2] it was 7.1 nM; in the assay with human serum albumin [3], 10.7 nM; in the assay with mouse serum albumin [4], 24.7 nM; in the assay with human serum albumin [5], 17.5 nM; with human serum albumin [6] it was 9 nM. Moreover, the Kd was 8.01 nM in the assay with mouse serum albumin [7], 6.72 nM in the assay with human serum albumin [8] and 13.3 nM with human serum albumin [9]. This molecule displayed a koff with human serum albumin [6] of 0.00016 s⁻¹. Besides, the kon with human serum albumin [6] was 17800 M⁻¹ s⁻¹.

B2: Antibody 2 (Antibody 648) as humanised IgG (antibody, V domains shown)
VH: EVQLVESGGGLVQPGGSLRLSCAVSGFSLSRYAMTWVRQAPGKGLEWIGTITTGGNTNYANWAKGRFTISKDSTTVYLQMNSLRAEDTAVYYCARGGYVSYADATELSLWGQGTLVTVSS
VL: DIVMTQSPSTLSASVGDRVTITCQASQSIGSRLAWYQQKPGKAPKLLIYYASTVASGVPSRFKGSGSGTEFTLTISSLQPDDFATYYCQSYDYSSSSSYAFGGGTKVEIK
notes: tested as humanised IgG; one grafted VH and one grafted VL were designed for this antibody
As to B2, the Kd with mouse serum albumin [10] is 23 nM; in the assay with rat serum albumin it was 54 nM.

B3: FabB-didAb, -dAbL2 (CK-G4Sx2) & dAbH2 (CH1-G4Sx2) (bispecific antibody)
heavy: ASTKGPSVFPLAPSSKSTSGGTAALGCLVKDYFPEPVTVSWNSGALTSGVHTFPAVLQSSGLYSLSSVVTVPSSSLGTQTYICNVNHKPSNTKVDKKVEPKSCGGGGSGGGGSEVQLVESGGGLVQPGGSLRLSCAVSGFSLSRYAMTWVRQAPGKGLEWIGTITTGGNTNYANWAKGRFTISKDSTTVYLQMNSLRAEDTAVYYCARGGYVSYADATELSLWGQGTLVTVSS
light: RTVAAPSVFIFPPSDEQLKSGTASVVCLLNNFYPREAKVQWKVDNALQSGNSQESVTEQDSKDSTYSLSSTLTLSKADYEKHKVYACEVTHQGLSSPVTKSFNRGECGGGGSGGGGSDIVMTQSPSTLSASVGDRVTITCQASQSIGSRLAWYQQKPGKAPKLLIYYASTVASGVPSRFKGSGSGTEFTLTISSLQPDDFATYYCQSYDYSSSSSYAFGGGTKVEIK
notes: also called FabB-648Fv (G4Sx2); FabB-648Fv (2xG4S)
On to B3, for which the Kd with mouse serum albumin [4] worked out at 42.4 nM.

B4: FabB-645dsFv (S3×G4S), Fv heavy mutation Y100cA (bispecific antibody, V domains shown)
VH: EVQLLESGGGLVQPGGSLRLSCAVSGIDLSNYAINWVRQAPGKCLEWIGIIWASGTTFYATWAKGRFTISRDSTTVYLQMNSLRAEDTAVYYCARTVPGYSTAPAFDLWGQGTLVTVSS
VL: DIVMTQSPSSVSASVGDRVTITCQSSPSVWSNFLSWYQQKPGKAPKLLIYEASKLTSGVPSRFKGSGSGTDFTLTISSLQPEDFATYYCGGGYSSISDTTFGCGTKVEIK
In the assay with human serum albumin [11], B4 displayed a Kd of 87 nM, a koff of 0.00107 s⁻¹ and a kon of 12300 M⁻¹ s⁻¹.

B5: Antibody 1 (Antibody 645) as humanised IgG (antibody, V domains shown)
VH: EVQLLESGGGLVQPGGSLRLSCAVSGIDLSNYAINWVRQAPGKGLEWIGIIWASGTTFYATWAKGRFTISRDSTTVYLQMNSLRAEDTAVYYCARTVPGYSTAPYFDLWGQGTLVTVSS
VL: DIVMTQSPSSVSASVGDRVTITCQSSPSVWSNFLSWYQQKPGKAPKLLIYEASKLTSGVPSRFKGSGSGTDFTLTISSLQPEDFATYYCGGGYSSISDTTFGGGTKVEIK
notes: as for B2
Turning to B5, the Kd with mouse serum albumin [10] was found to be 2.9 nM; with human serum albumin [12], 0.82 nM; with rat serum albumin it was 7.9 nM.

B6: Fab′A (Fab, V domains shown)
VH: EVQLVESGGGLVQPGGSLRLSCAFSGFSLSTSGVGVGWVRQAPGKGLEWVAHIWWDGDESYNPSLKTQFTISKDTSKNTVYLQMNSLRAEDTAVYYCARNRYDPPWFVDWGQGTLVTVSS
VL: DIQMTQSPSSLSASVGDRVTITCRASQDISNYLSWYQQKPGKAPKLLIYYTSKLHSGVPSRFSGSGSGTDYTLTISSLQPEDFATYYCQQGKMLPWTFGQGTKVEIKR
For the molecule B6, in the assay with IL-1β, the Kd was determined as 0.32 nM, the koff amounted to 6.46e-05 s⁻¹ and the kon amounted to 202000 M⁻¹ s⁻¹.

B7: FabA (Fab, V domains shown)
VH: EVQLVESGGGLVQPGGSLRLSCAFSGFSLSTSGVGVGWVRQAPGKGLEWVAHIWWDGDESYNPSLKTQFTISKDTSKNTVYLQMNSLRAEDTAVYYCARNRYDPPWFVDWGQGTLVTVSS
VL: DIQMTQSPSSLSASVGDRVTITCRASQDISNYLSWYQQKPGKAPKLLIYYTSKLHSGVPSRFSGSGSGTDYTLTISSLQPEDFATYYCQQGKMLPWTFGQGTKVEIKR
As to B7, in the assay with human serum albumin [13], the binding result is given as “no binding”.
